Laboratory results taken from patent publication US20200200749A1 (published 2020).

B1: 87 (antibody, V domains shown)
VH: QVQLVQSGAEVKRPGASVKVSCKASGYTFTSYAISWVRQAPGQGLEWMGWISGNNGNTNYAQKLQGRLTMTTDTSTSTAYMELRSLRSDDTAVYYCARDADIVVVVGATGTYYYGMDVWGQGTLVTVSS
VL: DIVMTQSPSTLSASVGDRVTITCRASQSISSWLAWYQQKPGKAPKLLIYDASSLESGVPSRFSGSGSGTEFTLTISSLQPDDFATYYCQQYKSSLRTFGQGTQLEIK
B2: 49 (antibody, V domains shown)
VH: EVQLVESGGGLVQPGGSLRLSCAASGFTFSSYEINWVRQAPGRGLEWVSYISSSGRTIYYADSVKGRFTISRDNAKNSLYLQMNSLRAEDTAVYYCAREPYVDGILYGAGDSYFDYWGQGTLVTVSS
VL: DIQMTQSPSSLSASVGDRVTITCRASQSISNYLNWYQQKPGKAPKVLIYAASSLQSGVSSRFSGSGSGTDFTLTISSLQPEDFATYFCQQSYNTPPVTFGQGTRLEIK
B3: 63 (antibody, V domains shown)
VH: EVQLVESGGGLVKPGGSLRLSCAASGFTLNFYNMNWVRQAPGKGLEWVSSISSSSNYIYYADSVKGRFTISRDNARKSLYLQMNSLRAEDTAVYYCARDFVQLLIPQRDEWQGVHDYYGMDVWGQGTLVTVSS
VL: EIVLTQSPGTLSLSPGGRATLSCRASQSVSNSYLAWYQQKPGQAPRLLIYGASSRATGIPDRFSGSGSGTDFILTISRLEPEDFAVYYCQHYGSSQLTFGGGTKVEIK
B4: 52 (antibody, V domains shown)
VH: QVQLQESGPGLVKPSETLSLNCTVSGGSISSYYWSWIRQPPGKGLEWIGYIYDSGRTKYNPSLKSRVTISLDTSKNQFSLKLSSVTAADTAVYYCASLGPFDKLWFGELLPGWFDPWGQGTLVTVSS
VL: EIVLTQSPATLSLSPGGRATLSCRASQSVHNYLAWYQQKSGQAPRLLIYDASNRATGIPARFSGSGSGTDFTLTISSLEPDDFAVYYCQHRSNWLTFGGGTKVEIK
B5: 62 (antibody, V domains shown)
VH: EVQLVESGGGLVQPGGSLRLSCAASGFTFSSYWMSWVRQAPGKGLEWVANIKQDGSAKYYVDSVKGRFTISRDNAKNSLYLQMNSLRAEDTAVYYCARDGLLGISDLLYPIYYFDYWGQGTLVTVSS
VL: DIVMTQSPSSLSASVGDRVTITCRASQNIGSYLNWYQQKPGKAPNLLMYAASSLQSGVPSRFSGSGSGTDFTLTITSLQPEDFATYYCQQSYSIPRTFGQGTQLEIK
B6: 324 (antibody, V domains shown)
VH: QVQLVQSGAEVKKPGASVKVSCKTSGYTFTSFEIHWVRQGSGQGLEWMGRMNPKSGDTVSAQKFQGRVTLTRDTSINAAYMELGSLSSEDTAVYYCARGPHVGEVVPGLMAGTYYFPLDVWGQGTLVTVSS
VL: DIQMTQSPSTLSASIGDRVTITCRASQSISRWLAWYQQKPGKAPKLLIYKVSDLQSGVPSRFSGSGYGTEFTLTIGSLQPDDLATYYCQQYDTYPWTFGQGTKLEIK
B7: 223 (antibody, V domains shown)
VH: QVQLQQWGAGLLKPSETLSLTCAVYGGSFTTTYWNWIRQPPGKGLEWIGEVNYSGNANYNPSLKGRVAISVDTSKNQFSLRLNSVTAADTAIYYCTSRIRSHIAYSWKGDVWGKGTTVTVSS
VL: EIVMTQSPGTLSLSPGERATLSCRASQSVPRNYIGWFQQKPGQAPRLLIYGASSRAAGFPDRFSGSGSGTDFTLTITRLEPEDFAMYYCHQYDRLPYTFGQGTKLEIK
B8: 270 (antibody, V domains shown)
VH: QVQLQESGPGLVKPSQTLSLTCTVSGASISRGLYYWSWIRQPAGKGLEWIGRIYTSGSINYNPSLKSRVTISVDTSKNQFSLRLSSVIATDTAVYYCVRDAPWGDFLTGYFGFYGMDVWGQGTLVTVSS
VL: DIVMTQSPSSLSASVGDRVTITCRASQSINTYLNWYQQKPGKAPKFLIYAASSLHSGVPSRFSGSGSGTDFTLTINSLQPDDFATYYCQQSFTTPYTFGQGTKLEIK
B9: 289 (antibody, V domains shown)
VH: QVQLVQSGAEVKKPGSSVKVSCKASGATFGSDTVTWVRQAPGQGLEWMGGIIPFFGEANYAQRFQGRVTITADKSTNTAYMELSSLRSEDTAVYFCARQINEMATFGEIHYYTYMDVWGQGTLVTVSS
VL: GSELTQDPAVSVALGQTVRITCQGDSLRNYYASWYQQKPRQAPVLVFYGKNNRPSGIPDRFSGSSSGNTASLTISGAQAEDEADYYCNSRDSSSNHLVFGGGTKLTVLS
B10: EBOV87 (antibody, V domains shown)
VH: B1 VH
VL: B1 VL
B11: EBOV49 (antibody, V domains shown)
VH: B2 VH
VL: B2 VL
B12: EBOV63 (antibody, V domains shown)
VH: B3 VH
VL: B3 VL
B13: EBOV52 (antibody, V domains shown)
VH: B4 VH
VL: B4 VL
B14: EBOV62 (antibody, V domains shown)
VH: B5 VH
VL: B5 VL

Target: MARV GP
Experiment: ELISA

Question: B1 was tested. Which EC50 did it give?
Answer: > 10 µg/mL

Question: With B2 as the binder, how does the EC50 read?
Answer: > 10 µg/mL

Question: How did the EC50 turn out when B3 was run?
Answer: > 10 µg/mL

Question: How did the EC50 turn out when B4 was run?
Answer: > 10 µg/mL

Question: Which EC50 does the source give for B5 here?
Answer: > 10 µg/mL

Target: T1, BDBV GP (BDBV (Bundibugyo ebolavirus))
Experiment: ELISA

Question: How did the EC50 turn out when B1 was run?
Answer: 1.39 µg/mL

Question: With B2 as the binder, how does the EC50 read?
Answer: > 10 µg/mL

Question: B3 was tested. Which EC50 did it give?
Answer: > 10 µg/mL

Question: Which EC50 does the source give for B4 here?
Answer: 1.84 µg/mL

Question: With B5 as the binder, how does the EC50 read?
Answer: 0.508 µg/mL

Target: MARV GP
Experiment: ELISA
Remark: another data set of the same source

Question: With B6 as the binder, how does the EC50 read?
Answer: > 10 µg/mL

Question: How did the EC50 turn out when B7 was run?
Answer: > 10 µg/mL

Question: For B8, which EC50 is on record?
Answer: > 10 µg/mL

Question: How did the EC50 turn out when B9 was run?
Answer: > 10 µg/mL

Target: BDBV sGP (BDBV (Bundibugyo ebolavirus))
Experiment: ELISA

Question: With B6 as the binder, how does the EC50 read?
Answer: 0.012 µg/mL

Question: With B7 as the binder, how does the EC50 read?
Answer: > 10 µg/mL

Question: Which EC50 does the source give for B8 here?
Answer: 0.025 µg/mL

Question: For B9, which EC50 is on record?
Answer: 0.006 µg/mL

Target: T1, BDBV GP
Experiment: ELISA
Remark: another data set of the same source

Question: Which EC50 does the source give for B6 here?
Answer: 0.053 µg/mL

Question: With B7 as the binder, how does the EC50 read?
Answer: 0.022 µg/mL

Question: With B8 as the binder, how does the EC50 read?
Answer: 0.154 µg/mL

Question: For B9, which EC50 is on record?
Answer: 0.02 µg/mL

Target: T2, EBOV GP (recombinant, full-length extracellular domain) (EBOV (Ebola Zaire), UniProt Q05320 33-650)
T2 chain: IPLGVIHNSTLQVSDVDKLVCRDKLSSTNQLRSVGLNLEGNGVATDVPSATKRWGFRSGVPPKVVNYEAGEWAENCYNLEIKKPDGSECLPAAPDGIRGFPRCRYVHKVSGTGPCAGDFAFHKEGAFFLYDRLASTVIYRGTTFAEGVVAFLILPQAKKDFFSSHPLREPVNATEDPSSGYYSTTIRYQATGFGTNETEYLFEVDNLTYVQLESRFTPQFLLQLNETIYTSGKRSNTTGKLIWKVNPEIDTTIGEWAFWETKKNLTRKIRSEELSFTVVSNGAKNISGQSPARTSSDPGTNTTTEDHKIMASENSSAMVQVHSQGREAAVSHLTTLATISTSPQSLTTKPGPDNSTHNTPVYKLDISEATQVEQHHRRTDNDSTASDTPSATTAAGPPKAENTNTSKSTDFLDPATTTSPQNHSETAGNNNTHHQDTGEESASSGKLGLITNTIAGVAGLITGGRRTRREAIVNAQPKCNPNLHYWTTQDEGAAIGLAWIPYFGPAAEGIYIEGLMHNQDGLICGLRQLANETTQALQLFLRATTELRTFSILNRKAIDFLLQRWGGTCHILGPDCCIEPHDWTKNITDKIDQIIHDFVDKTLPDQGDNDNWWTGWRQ
Experiment: ELISA

Question: B10 was tested. Which EC50 did it give?
Answer: 0.724 µg/mL

Question: How did the EC50 turn out when B11 was run?
Answer: 0.262 µg/mL

Question: B12 was tested. Which EC50 did it give?
Answer: 0.283 µg/mL

Question: Which EC50 does the source give for B13 here?
Answer: 0.712 µg/mL

Question: B14 was tested. Which EC50 did it give?
Answer: 0.228 µg/mL

Target: T3, EBOV sGP (EBOV (Ebola Zaire), UniProt P60170 33-324)
T3 chain: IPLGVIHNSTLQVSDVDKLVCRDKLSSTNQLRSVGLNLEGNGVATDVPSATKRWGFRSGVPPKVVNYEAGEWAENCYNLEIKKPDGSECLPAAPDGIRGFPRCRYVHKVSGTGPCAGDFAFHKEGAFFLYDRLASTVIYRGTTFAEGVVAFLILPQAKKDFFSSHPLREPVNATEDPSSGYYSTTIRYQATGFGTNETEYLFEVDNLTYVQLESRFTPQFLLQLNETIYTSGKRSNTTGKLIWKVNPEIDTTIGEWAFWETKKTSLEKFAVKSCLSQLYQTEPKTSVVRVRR
Experiment: ELISA

Question: Which EC50 does the source give for B10 here?
Answer: 0.051 µg/mL

Question: Which EC50 does the source give for B11 here?
Answer: 0.061 µg/mL

Question: With B12 as the binder, how does the EC50 read?
Answer: 0.038 µg/mL

Question: Which EC50 does the source give for B13 here?
Answer: 0.082 µg/mL

Question: How did the EC50 turn out when B14 was run?
Answer: 0.051 µg/mL

Target: T4, SUDV GP (recombinant) (SUDV (Sudan ebolavirus), UniProt Q66814 33-650)
T4 chain: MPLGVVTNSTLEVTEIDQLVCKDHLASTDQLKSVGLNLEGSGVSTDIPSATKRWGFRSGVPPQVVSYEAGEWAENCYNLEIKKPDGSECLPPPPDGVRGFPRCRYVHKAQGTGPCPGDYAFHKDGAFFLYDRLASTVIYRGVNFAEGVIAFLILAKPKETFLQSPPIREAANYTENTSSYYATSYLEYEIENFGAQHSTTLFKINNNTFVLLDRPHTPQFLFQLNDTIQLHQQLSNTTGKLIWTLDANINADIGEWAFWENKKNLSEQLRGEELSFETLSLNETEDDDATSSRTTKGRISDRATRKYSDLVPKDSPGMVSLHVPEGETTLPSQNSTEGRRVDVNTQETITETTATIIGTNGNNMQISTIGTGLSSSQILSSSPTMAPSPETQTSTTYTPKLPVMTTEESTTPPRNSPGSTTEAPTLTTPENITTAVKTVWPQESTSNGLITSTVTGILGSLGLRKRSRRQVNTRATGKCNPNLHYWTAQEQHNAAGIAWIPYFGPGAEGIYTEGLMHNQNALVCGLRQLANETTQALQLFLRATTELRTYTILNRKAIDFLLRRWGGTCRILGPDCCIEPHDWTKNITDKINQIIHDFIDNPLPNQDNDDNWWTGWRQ
Experiment: ELISA

Question: Which EC50 does the source give for B10 here?
Answer: 0.629 µg/mL

Question: For B11, which EC50 is on record?
Answer: > 10 µg/mL

Question: For B12, which EC50 is on record?
Answer: > 10 µg/mL

Question: Which EC50 does the source give for B13 here?
Answer: > 10 µg/mL

Question: How did the EC50 turn out when B14 was run?
Answer: > 10 µg/mL
